From US20060039859A1
Square brackets hold non-standard residues; d marks the D form. Ends that are not written are not given here.

Molecular target: Aβ1-40 fibrils (Homo sapiens (Human)) (UniProt P05067)
Test: saturation radioligand binding to Aβ fibrils in PBS, RT 90 min, Centricon 100 kDa filtration

Aβ1-40 fibrils (Homo sapiens (Human)), sequence (P05067 672-711 limits assumed): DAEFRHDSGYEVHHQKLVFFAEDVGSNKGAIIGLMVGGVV

Kd: 352 nM
B1: 99mTc-peptide (technetium-99m-labeled BBB permeant Aβ-targeted peptide KKLVFFAεKGC) (peptide)
peptide: [dK][dK][dL][dV][dF][dF][dA]KG[dC]
modifications: not fully specified (residue 8); printed as KKLVFFAεKGC; also: 99mTc chelated by εKGC (N3S core)
